Reference: paper PMC3094553

Molecular target: PF0699 (conserved hypothetical protein) (Pyrococcus furiosus) (UniProt Q8U2X9)
Test: SAXS

Substance: PF0699 (conserved hypothetical protein) (from UniProt Q8U2X9 1-139) (natural protein)
- stoichiometry N: 2
